T1: human EpCAM (CHO/EpCAM cells) (Homo sapiens, UniProt P16422)
T1 construct: full-length of human EpCAM (aa 1-314); expressed in transfected cells; host or cells: CHO (Chinese hamster ovary) cells
T1 sequence (P16422 24-314): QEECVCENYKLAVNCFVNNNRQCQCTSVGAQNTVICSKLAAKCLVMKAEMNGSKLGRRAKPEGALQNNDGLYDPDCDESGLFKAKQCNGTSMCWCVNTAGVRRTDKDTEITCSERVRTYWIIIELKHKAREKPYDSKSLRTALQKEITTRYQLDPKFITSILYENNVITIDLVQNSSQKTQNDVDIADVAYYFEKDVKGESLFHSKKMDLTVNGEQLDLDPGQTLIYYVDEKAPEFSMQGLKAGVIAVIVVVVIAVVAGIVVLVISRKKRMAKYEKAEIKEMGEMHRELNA


Legend:
[1] = tested on: Pharynx cancer FaDu cells; assay: Antibody cytotoxicity assay (Annexin V + PI), FaDu; assay type: cell-based; details: for Induction of cell death (in words): 1, 3 and 10 μg/ml, overnight; for Cytotoxic effect (Annexin V + PI staining, dead cells): 17-20 hr
Procedure: (§1) After a 17-20 hr incubation at 37° C., cells were stained with 0.3 μl of FITC-conjugated Annexin V (Strong Biotech Corp. Cat. No. AVK250) in 50 μl Annexin V binding buffer (Strong Biotech Corp. Cat. No. AVK250) at RT for 20 min. After wash, the cells were then stained with 0.3 μl of propidium iodide in 200 μl Annexin V binding buffer. Annexin V and Propidium Iodide were used as a joint indicator for cell death. The data were acquired with BD FACSCalibur based on an acquisition of 3,000-5,000 cells and analyzed with the Cell Quest software. The combined percentages of the Annexin V+/PI+, Annexin V+/PI− and Annexin V−/PI+populations were considered as dead cells.

[2] = molecular target: T1, human EpCAM (CHO/EpCAM cells); assay: FACS binding of anti-EpCAM antibodies to CHO/EpCAM cells; details: antibody 0.1 μg/ml; HPS at 300x dilution
Procedure: The cDNAs encoding full-length of human EpCAM (aa 1-314) were amplified by PCR from the cDNA pool generated from T-47D cells and cloned into the modified pcDNA 3.1/Myc-His(+) A vector (Invitrogen), followed by transfecting into Chinese hamster ovary (CHO) cells at 80-90% confluence in 6-well culture dishes, using Lipofectamine 2000 (Invitrogen, Cat. No. 11668-500). Transfectants were selected in F12/10% FBS medium containing 600 ug/ml Hygromycin B (C.A. IN-10687-010). Transfected cells expressing hEpCAM were identified by flow cytometry with anti-EpCAM antibodies.
1×10^5 CHO/EpCAM or CHO parental cells were seeded in each well of a v-bottomed 96-well plate and incubated with purified anti-EpCAM antibodies or mouse IgG control antibody 9E10 at concentration of 0.1 μg/ml. A 300× dilution of human cell hyper-immune serum (HPS 300×) was used as binding positive control for both cell lines here. After 1 hr incubation at 4° C., cells were washed twice with 200 μl FACS buffer (1×PBS containing 1% FBS), stained with 100 μl of 1 μg/ml goat-anti-mouse IgG-PE (Southern Biotech, Cat. No. 1032-09) in FACS buffer and then incubated at 4° C. for 30 min. Cells were washed thrice with FACS buffer and analyzed by flow cytometry (BD LSR, BD Life Sciences).

[3] = tested on: Prostate cancer LNCaP cells; assay: Antibody cytotoxicity assay (Annexin V + PI), LNCaP; assay type: cell-based; details: for Induction of cell death (in words): 1, 3 and 10 μg/ml, overnight; for Cytotoxic effect (Annexin V + PI staining, dead cells): 17-20 hr
Procedure: as §1

| Molecule | Induction of cell death (in words) [1] | Cytotoxic effect (Annexin V + PI staining, dead cells) ([1]; mAb 1.0 μg/ml) | Cytotoxic effect (Annexin V + PI staining, dead cells) ([1]; mAb 3.0 μg/ml) | Cytotoxic effect (Annexin V + PI staining, dead cells) ([1]; mAb 10 μg/ml) | Binding (FACS, Mean fluorescence intensity (MFI)) CHO/EpCAM [2] | Induction of cell death (in words) [3] | Cytotoxic effect (Annexin V + PI staining, dead cells) ([3]; mAb 1.0 μg/ml) | Cytotoxic effect (Annexin V + PI staining, dead cells) ([3]; mAb 3.0 μg/ml) | Cytotoxic effect (Annexin V + PI staining, dead cells) ([3]; mAb 10 μg/ml) |
| --- | --- | --- | --- | --- | --- | --- | --- | --- | --- |
| 1F10: murine anti-human EpCAM monoclonal antibody (IgG1, λ1), hybridoma m338-1F10.3; VH SEQ ID NO:11, VL SEQ ID NO:13 (antibody, listed as Mus musculus, V domains shown) VH: EVKLLESGGGLVQPGGSLKLSCAASGFDFSRYWMSWVRQAPGKGLEWIGEINPDSSTMNYTPSLKDKFIISRDNAKNTLYLQMSKVRSEDTALYYCARGAYAMDYWGQGTSVTVSS VL: QAVVTQESALTTSPGETVTLTCRSSTGAVTTSNNANWVQEKPDHLFTGLIGATNNRAPGVPARFSGSLIGDKAALTITGAQTEDEAIYFCALWYINHWVFGGGTKLTVLG | substantial cell death | 44% | 42% | 45% | 5634 | substantial cell death | 47% | 53% | 48% |
| 1G10: murine anti-human EpCAM monoclonal antibody (IgG1, K), hybridoma m290-1G10; VH SEQ ID NO:7, VL SEQ ID NO:9 (antibody, listed as Mus musculus, V domains shown) VH: QIQLVQSGPELKKPGETVKISCKASGYTFTNYGMNWVKQAPGKGFKWMGWINTYTGEPTYADDFKGRFAFSLETSASTAYLQINNLQNEDMATYFCARWGYDFDYWGQGTTLTVSS VL: QIVLTQSPAIMSSSPGEKVTMTCSASSSISYMNWYQQKPGTSPKRWIYDTSKLASGVPARFSGSGSGTSYSLTISSMEAEDAATYYCHQRSSYPYTFGGGTKLEIKR | substantial cell death | 40% | 50% | 51% | 6178 | substantial cell death | 42% | 55% | 45% |

Source: US20110165161A1, “ANTI-EPCAM ANTIBODIES THAT INDUCE APOPTOSIS OF CANCER CELLS AND METHODS USING SAME” (priority 2009, published 2011)
